Measured values from paper PMC12781872.
Several values for one entry are separate records, joined by “and”; a condition that tells them apart may be missing. Equal values may be shown once.

Target: Dylight488-labelled Mtb RNAP core derivative (β' D359 4-azido-L-phenylalanine) (Mycobacterium tuberculosis) (UniProt P9WGZ1)
Assay: FRET or BRET

“TMR-labelled Mtb σ^F used in the FRET competition and titration assays (from UniProt P9WGI3 1-261) (natural protein)” was tested, and the Kd was 0.0211 µM and 0.0026 µM.
